Measurements published in patent US20170190781A1.

Biological target: death receptor 3 (DR3) on human PBMCs / T cells (human) (UniProt Q93038)
Assay: cell-based or functional assay

Sequence of death receptor 3 (DR3) on human PBMCs / T cells (human) (Q93038 25-417 limits assumed): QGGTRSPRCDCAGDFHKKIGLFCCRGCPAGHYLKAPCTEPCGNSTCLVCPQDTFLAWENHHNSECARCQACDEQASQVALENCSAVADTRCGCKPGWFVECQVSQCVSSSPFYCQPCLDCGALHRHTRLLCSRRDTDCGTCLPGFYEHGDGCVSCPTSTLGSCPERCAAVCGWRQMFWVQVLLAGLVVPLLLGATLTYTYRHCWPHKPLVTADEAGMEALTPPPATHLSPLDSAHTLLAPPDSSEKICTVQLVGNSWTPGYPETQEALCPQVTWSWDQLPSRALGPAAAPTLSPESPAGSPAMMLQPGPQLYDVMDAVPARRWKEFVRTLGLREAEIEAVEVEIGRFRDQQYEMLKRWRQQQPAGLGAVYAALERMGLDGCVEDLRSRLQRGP

“recombinant soluble human Flag-TL1A(EC) (ligand)” was tested, and the IL-13 production by T cells with anti-CD3/anti-CD28, 1 ug/mL TL1A-flag (FIG. 4) was 1300 pg/mL, the IL-13 production by T cells with anti-CD3/anti-CD28, 1 ug/mL TL1A-flag (FIG. 8) was 1850 pg/mL and the p65 phosphorylation-positive cells (%) in PBMCs, 40 nM TL1A-flag (FIG. 2B) was 55%. It also gave a p65 phosphorylation-positive cells (%) in PBMCs, 40 nM TL1A-flag alone (FIG. 2A) of 45%, a p65 phosphorylation-positive cells (%) in PBMCs, TL1A alone (FIG. 3) of 55% and a p65 phosphorylation-positive cells (%) in PBMCs, TL1A alone (FIG. 5) of 69.5%. For the same substance, the p65 phosphorylation-positive cells (%) in PBMCs, TL1A alone (FIG. 6) was 45% and the p65 phosphorylation-positive cells (%) in PBMCs, TL1A alone (FIG. 7) was 55%.
